{"source": "paper doi:10.1101/2021.03.07.433908", "about": "(bioRxiv, 2021)", "proteins": {"B1": {"name": "Human αB-crystallin (natural protein)", "chain": "MDIAIHHPWIRRPFFPFHSPSRLFDQFFGEHLLESDLFPTSTSLSPFYLRPPSFLRAPSWFDTGLSEMRLEKDRFSVNLDVKHFSPEELKVKVLGDVIEVHGKHEERQDEHGFISREFHRKYRIPADVDPLTITSSLSSDGVLTVNGPRKQVSGPERTIPITREEKPAVTAAPKK", "modifications": "15N labelled (HSQC spectra); 2H/13CH3 Ile δ1, Val γ1/γ2, Leu δ1/δ2 labelled (binding studies and diffusion analyses)"}}, "target": "the molecule itself", "assay": "pulsed field gradient diffusion NMR"}
{"protein": "B1", "values": [{"measurement": "stoichiometry N", "value": 28}]}
